In US20240261333A1, “NOVEL TARGETS FOR ENHANCING ANTI-TUMOR IMMUNITY” (THE BROAD INSTITUTE, INC., priority 2021, published 2024):

Biological target: T1, B3GNT2 (Homo sapiens, UniProt Q9NY97)
T1 construct: The respective ORFs of candidate genes [CD274 (NM_014143), MCL1 (NM_021960), JUNB (NM_002229), and B3GNT2 (NM_006577)] were synthesized; expressed in transfected cells; host or cells: A375 melanoma cells (lentiviral ORF overexpression)
T1 sequence (Q9NY97 1-397): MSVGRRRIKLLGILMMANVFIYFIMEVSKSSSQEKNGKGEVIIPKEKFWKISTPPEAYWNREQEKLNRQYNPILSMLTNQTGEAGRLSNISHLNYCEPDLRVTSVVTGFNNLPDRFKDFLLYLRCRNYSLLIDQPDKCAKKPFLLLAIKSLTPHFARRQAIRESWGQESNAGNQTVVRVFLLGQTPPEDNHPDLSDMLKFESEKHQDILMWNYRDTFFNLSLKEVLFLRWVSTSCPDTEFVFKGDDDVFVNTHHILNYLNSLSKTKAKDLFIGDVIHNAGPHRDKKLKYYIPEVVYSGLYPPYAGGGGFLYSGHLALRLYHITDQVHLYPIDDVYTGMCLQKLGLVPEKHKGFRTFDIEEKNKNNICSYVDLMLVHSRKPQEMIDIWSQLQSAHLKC
Assay: Co-IP of FLAG-tagged B3GNT2 followed by mass spectrometry
Assay type: cell-based
Set-up: C-term IgG / C-term flag: unit not given here
Conditions: Co-IP followed by mass spectrometry of B3GNT2; for C-term flag / C-term IgG: C-term tag; for C-term flag / N-term FLAG: FLAG pull-down; for C-term IgG / N-term IgG: IgG pull-down; for N-term FLAG / N-term IgG: N-term tag
Outline: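 Co-purifying proteins were identified by fractionated nano-LC–MS/MS on an Orbitrap Elite, run data-dependent. Beforehand, lysates in 1% Triton X-100/HEPES buffer were incubated overnight at 4° C with anti-FLAG or […] and pulled down on Protein A/G magnetic beads for 4 h. Duplicate biological replicates.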

Row | Molecule | C-term flag | C-term IgG | N-term FLAG | N-term IgG
1 | MOV10 (protein) MPSKFSCRKLRETGQRFESFLAERGLDLETDRERLRTIYNHDFKPSYGTPAPGFSSMLYGMKIANLAFVTKTRVRFFKLDRWADVQLPEKRRIKPGSNISKQHRSLLARIFHDRAEYLHGKHGVDVEVQGPHEARDGQLLIHLDLNRKEVLTLRLRNGGSKPVTLTHLFPLCWTPQFVFYHGEQDLPCPLGPGESYELHIYCKTSIVGYFPATVLWELLGPGESGAEGAETFYIARFLAAVAHSPLAAQLKPTTPFKRPPRLTRNSVLTNRIEEGERPDRAKGYELELSLALGTYYPPILLRQLLPTLLQGPSIFTAPKEVAEIKAQLETTLKSRNYEVKLRLLLHLEELQMEHDIRHYDLDSVPMTWDPVDQNPRLLTLEVPGVAESRPSVLRGDHLFALLSSETQQDDPVTYKGFVHKVELDRVKLSFSTSLLSRFVDGLTFKVNFTFNRQPLRVQHRALELTGRWVLWPMLFPVASRGVSLLPSDVKFKLYDRSLESNPEQLQAMKHIVRGTTRPAPYIIFGPPGTGKTVTLVEAIKQVVKHLPKAHILACAPSNSGADLLCQRLRVHLPSSIYRLLAPSRDIRMVPEDIKTCCNWDAKKGEYVYPAKKHLQQYRVLITTLITASRLVSAQFPIDHFTHIFIDEAGHCMEPESLVAIAGLMDVKETGNPGGQLVLAGDPRQLGPVLRSPLALKHGLGYSLLERLLAYNSLYKKGPNGYDPQFITKLLRNYRSHPTILDIPNQLYYDGELQACADVVDRERFCRWEGLPQQGFPIIFHGVMGKDEREGNSPSFFNPEEAATVTSYLKQLLAPSSKKGKARLSPRNVGVISPYRKQVEKIRYCITKLDRELRGLDDIKDLKVGSVEEFQGQERSVILISTVRSSQSFVQLDLDFNLGFLKNPKRFNVAVTRAKALLIVVGNPLLLGHDPDWKTFLEFCKENGGYTGCPFPAKLDLQQGQDLLQGLSKLSPSTSGPRRHQNLPQEREGEGGLPLQVEPEWRNEL | 3 | 3 | 4 | 3
2 | DNAJC3 (protein) GVNADVEKHLELGKKLLAAGQLADALSQFHAAVDGDPDNYIAYYRRATVFLAMGKSKAALPDLTKVIQLKMDFTAARLQRGHLLLKQGKLDEAEDDFKKVLKSNPSENEEKEAQSQLIKSDEMQRLRSQALNAFGSGDYTAAIAFLDKILEVCVWDAELRELRAECFIKEGEPRKAISDLKAASKLKNDNTEAFYKISTLYYQLGDHELSLSEVRECLKLDQDHKRCFAHYKQVKKLNKLIESAEELIRDGRYTDATSKYESVMKTEPSIAEYTVRSKERICHCFSKDEKPVEAIRVCSEVLQMEPDNVNALKDRAEAYLIEEMYDEAIQDYETAQEHNENDQQIREGLEKAQRLLKQSQKRDYYKILGVKRNAKKQEIIKAYRKLALQWHPDNFQNEEEKKKAEKKFIDIAAAKEVLSDPEMRKKFDDGEDPLDAESQQGGGGNPFHRSWNSWQGFNPFSSGGPFRFKFHFN | 3 | 0 | 0 | 0
3 | FUBP3 (protein) AELVQGQSAPVGMKAEGFVDALHRVRQIAAKIDSIPHLNNSTPLVDPSVYGYGVQKRPLDDGVGNQLGALVHQRTVITEEFKVPDKMVGFIIGRGGEQISRIQAESGCKIQIASESSGIPERPCVLTGTPESIEQAKRLLGQIVDRCRNGPGFHNDIDSNSTIQEILIPASKVGLVIGRGGETIKQLQERTGVKMVMIQDGPLPTGADKPLRITGDAFKVQQAREMVLEIIREKDQADFRGVRGDFNSRMGGGSIEVSVPRFAVGIVIGRNGEMIKKIQNDAGVRIQFKPDDGISPERAAQVMGPPDRCQHAAHIISELILTAQERDGFGGLAAARGRGRGRGDWSVGAPGGVQEITYTVPADKCGLVIGKGGENIKSINQQSGAHVELQRNPPPNSDPNLRRFTIRGVPQQIEVARQLIDEKVGGTNLGAPGAFGQSPFSQPPAPPHQNTFPPRSSGCFPNMAAKVNGNPHSTPVSGPPAFLTQGWGSTYQAWQQPTQQVPSQQSQPQSSQPNYSKAWEDYYKKQSHAASAAPQASSPPDYTMAWAEYYRQQVAFYGQTLGQAQAHSQEQ | 9 | 7 | 8 | 8
4 | DDX5 (protein) MSGYSSDRDRGRDRGFGAPRFGGSRAGPLSGKKFGNPGEKLVKKKWNLDELPKFEKNFYQEHPDLARRTAQEVETYRRSKEITVRGHNCPKPVLNFYEANFPANVMDVIARQNFTEPTAIQAQGWPVALSGLDMVGVAQTGSGKTLSYLLPAIVHINHQPFLERGDGPICLVLAPTRELAQQVQQVAAEYCRACRLKSTCIYGGAPKGPQIRDLERGVEICIATPGRLIDFLECGKTNLRRTTYLVLDEADRMLDMGFEPQIRKIVDQIRPDRQTLMWSATWPKEVRQLAEDFLKDYIHINIGALELSANHNILQIVDVCHDVEKDEKLIRLMEEIMSEKENKTIVFVETKRRCDELTRKMRRDGWPAMGIHGDKSQQERDWVLNEFKHGKAPILIATDVASRGLDVEDVKFVINYDYPNSSEDYIHRIGRTARSTKTGTAYTFFTPNNIKQVSDLISVLREANQAINPKLLQLVEDRGSGRSRGRGGMKDDRRDRYSAGKRGGFNTFRDRENYDRGYSSLLKRDFGAKTQNGVYSAANYTNGSFGSNFVSAGIQTSFRTGNPTGTYQNGYDSTQQYGSNVPNMHNGMNQQAYAYPATAAAPMIGYPMPTGYSQ | 22 | 16 | 16 | 18
5 | GGCT (protein) MANSGCKDVTGPDEESFLYFAYGSNLLTERIHLRNPSAAFFCVARLQDFKLDFGNSQGKTSQTWHGGIATIFQSPGDEVWGVVWKMNKSNLNSLDEQEGVKSGMYVVIEVKVATQEGKEITCRSYLMTNYESAPPSPQYKKIICMGAKENGLPLEYQEKLKAIEPNDYTGKVSEEIEDIIKKGETQTL | 0 | 0 | 3 | 0
6 | NUFIP2 (protein) MEEKPGQPQPQHHHSHHHPHHHPQQQQQQPHHHHHYYFYNHSHNHHHHHHHQQPHQYLQHGAEGSPKAQPKPLKHEQKHTLQQHQETPKKKTGYGELNGNAGEREISLKNLSSDEATNPISRVLNGNQQVVDTSLKQTVKANTFGKAGIKTKNFIQKNSMDKKNGKSYENKSGENQSVDKSDTIPIPNGVVTNNSGYITNGYMGKGADNDGSGSESGYTTPKKRKARRNSAKGCENLNIVQDKIMQQETSVPTLKQGLETFKPDYSEQKGNRVDGSKPIWKYETGPGGTSRGKPAVGDMLRKSSDSKPGVSSKKFDDRPKGKHASAVASKEDSWTLFKPPPVFPVDNSSAKIVPKISYASKVKENLNKTIQNSSVSPTSSSSSSSSTGETQTQSSSRLSQVPMSALKSVTSANFSNGPVLAGTDGNVYPPGGQPLLTTAANTLTPISSGTDSVLQDMSLTSAAVEQIKTSLFIYPSNMQTMLLSTAQVDLPSQTDQQNLGDIFQNQWGLSFINEPSAGPETVTGKSSEHKVMEVTFQGEYPATLVSQGAEIIPSGTEHPVFPKAYELEKRTSPQVLGSILKSGTTSESGALSLEPSHIGDLQKADTSSQGALVFLSKDYEIESQNPLASPTNTLLGSAKEQRYQRGLERNDSWGSFDLRAAIVYHTKEMESIWNLQKQDPKRIITYNEAMDSPDQ | 5 | 4 | 3 | 3
7 | SAMM50 (protein) MGTVHARSLEPLPSSGPDFGGLGEEAEFVEVEPEAKQEILENKDVVVQHVHFDGLGRTKDDIIICEIGDVFKAKNLIEVMRKSHEAREKLLRLGIFRQVDVLIDTCQGDDALPNGLDVTFEVTELRRLTGSYNTMVGNNEGSMVLGLKLPNLLGRAEKVTFQFSYGTKETSYGLSFFKPRPGNFERNFSVNLYKVTGQFPWSSLRETDRGMSAEYSFPIWKTSHTVKWEGVWRELGCLSRTASFAVRKESGHSLKSSLSHAMVIDSRNSSILPRRGALLKVNQELAGYTGGDVSFIKEDFELQLNKQLIFDSVFSASFWGGMLVPIGDKPSSIADRFYLGGPTSIRGFSMHSIGPQSEGDYLGGEAYWAGGLHLYTPLPFRPGQGGFGELFRTHFFLNAGNLCNLNYGEGPKAHIRKLAECIRWSYGAGIVLRLGNIARLELNYCVPMGVQTGDRICDGVQFGAGIRFL | 0 | 0 | 3 | 0
